These results are taken from patent US20050148500A1, “Dopaminergic stimulatory factor” (priority 2001, published 2005).

Entries after “also recorded” stand apart in the source; their conditions may differ.

In the assay the test system is MN9D cells. Description: Dopamine content of MN9D cells in monolayer culture after incubation with protein (HPLC). In kind it is cell-based, mouse. On the procedure: […] The MN9D cells on each plate were then collected in 10 ml of CMF, transferred to 15 ml centrifuge tubes and centrifuged at 1000×g for 5 min. The supernatant was removed and 600 μl of 0.5 N perchloric acid was added to the cell pellet which was then sonicated on ice for 10-15 s. The cell extract was centrifuged at 4000×g for 30 min and the supernatant stored at −80° C. for subsequent high pressure liquid chromatography (HPLC) analysis of MN9D cell dopamine content. The pellet was stored at −20° C. for subsequent protein analysis.
A second experiment was then conducted to determine whether this effect was due to a change in the doubling time (24 h) of the MN9D cells with increased cell production or was the result of an increase in cellular dopamine. […] Cells were removed from the plates and cell numbers determined by counting in a hematocytometer. Dopamine content was determined by HPLC analysis. The MN9D cells can be differentiated by exposure to either sodium butyrate or dibutryl cyclic adenosine monophosphate for 5 days (Choi et al., 1991) resulting in a reduction in the rate of cell division and the production of extensive cellular processes.
Experiment involved 24 hour incubation with X61 protein(s). X61 protein(s) was incubated with 100 microliter of concentrated monoclonal antibody against 14-3-3 (anti-14-3-3) obtained from Santa Cruz Biotechnology for 15 minutes at room temperature prior to addition to MN9D cells grown on 6-well plates. Data given as ng dopamine per well, n=3. The reason for the lower amounts of dopamine seen in this experiment as compared to that in Tables 2 and 3 is related to differences in time of exposure and plate size. X61 protein(s) were also preincubated with an antibody against neuronal nuclear protein as a control. This antibody had no effect on X61 protein(s) activity.
After this period, the MN9D cells on each plate are collected in 10 ml of CMF, transferred to 15 ml centrifuge tubes and centrifuged at 1000×g for 5 min. The supernatant is removed and 600 μl of 0.5N perchloric acid is added to the cell pellet which is then sonicated on ice for 10-15 seconds. The material obtained is centrifuged at 4000×g for 30 minutes and the supernatant stored at −80° C. MN9D cell DA content is determined by reverse phase high pressure liquid chromatography with electrochemical detection (HPLC-ED) as previously described (Heller et al., 1993). The pellet is stored at −20° C. for subsequent protein analysis.

B1: ciliary neurotrophic factor (protein, UniProt P26441 1-200, looked up)
Ciliary neurotrophic factor: MAFTEHSPLTPHRRDLCSRSIWLARKIRSDLTALTESYVKHQGLNKNINLDSADGMPVASTDQWSELTEAERLQENLQAYRTFHVLLARLLEDQQVHFTPTEGDFHQAIHTLLLQVAAFAYQIEELMILLEYKIPRNEADGMPINVGDGGLFEKKLWGLKVLQELSQWTVRSIHDLRFISSHQTGIPARGSHYIANNKKM
Take B1: the “effect on MN9D dopamine levels” value (100 ng/ml, 24 hour treatment) was “no significant effect”. Besides, where the note is “100 ng/ml, 24 hour treatment, controls 157.8±3.3”, the “MN9D DA levels” value was found to be 156.5±10.9 ng/plate.

B2: transforming growth factor β2 (protein, UniProt P61812 303-414, looked up)
Transforming growth factor …: ALDAAYCFRNVQDNCCLRPLYIDFKRDLGWKWIHEPKGYNANFCAGACPYLWSSDTQHSRVLSLYNTINPEASASPCCVSQDLEPLTILYYIGKTPKIEQLSNMIVKSCKCS
In the case of B2, the “effect on MN9D DA levels” value is on record as “without effect”.

B3: glial derived neurotrophic factor (protein, UniProt P39905 78-211, looked up)
Glial cell line-derived …: SPDKQMAVLPRRERNRQAAAANPENSRGKGRRGQRGKNRGCVLTAIHLNVTDLGLGYETKEELIFRYCSGSCDAAETTYDKILKNLSRNRRLVSDKVGQACCRPIAFDDDLSFLDDNLVYHILRKHSAKRCGCI
On to B3, for which the “effect on MN9D dopamine levels versus controls” value (1 ng/ml for 5 days) was “significantly lower; also recorded: significant decrease”. The “MN9D DA levels” value (1 ng/ml for 5 days, control 467±18.4) worked out at 356.0±14.4 ng/plate.
